According to patent US20150010920:

Tests used:
[1] = system: EGFP-Thr1e (EGFP-E-III-F-FNPRGF)
[2] = system: EGFP-Thr1f (EGFP-E-III-F-FNPRSF)
[3] = system: EGFP-Thr1 (EGFP-E-III-F-N188R)
[4] = system: EGFP-T/C1 (EGFP-E-III-F-172)
[5] = system: EGFP-cas3-1 (also called EGFP-EF172cas)

Substance	Km (µM); 50 mM Tris, 150 mM NaCl, 2.5 mM CaCl2, pH 8.0 [1] [µM]	fold change in Km compared to the thrombin sensor with cleavage linker (Gly-Arg-Gly) [1]	fold change in kcat compared to the thrombin sensor with cleavage linker (Gly-Arg-Gly) [1]	fold change in kcat/Km compared to the thrombin sensor with cleavage linker (Gly-Arg-Gly) [1]	kcat (s^-1); 50 mM Tris, 150 mM NaCl, 2.5 mM CaCl2, pH 8.0 [1] [s⁻¹]	kcat/Km (M^-1 s^-1); 50 mM Tris, 150 mM NaCl, 2.5 mM CaCl2, pH 8.0 [1] [M⁻¹ s⁻¹]	Km (µM); 50 mM Tris, 150 mM NaCl, 2.5 mM CaCl2, pH 8.0 [2] [µM]	fold change in Km compared to the thrombin sensor with cleavage linker (Gly-Arg-Gly) [2]	fold change in kcat compared to the thrombin sensor with cleavage linker (Gly-Arg-Gly) [2]	fold change in kcat/Km compared to the thrombin sensor with cleavage linker (Gly-Arg-Gly) [2]	kcat (s^-1); 50 mM Tris, 150 mM NaCl, 2.5 mM CaCl2, pH 8.0 [2] [s⁻¹]	kcat/Km (M^-1 s^-1); 50 mM Tris, 150 mM NaCl, 2.5 mM CaCl2, pH 8.0 [2] [M⁻¹ s⁻¹]	Km (µM); 50 mM Tris, 150 mM NaCl, 2.5 mM CaCl2, pH 8.0 [3] [µM]	kcat (s^-1); 50 mM Tris, 150 mM NaCl, 2.5 mM CaCl2, pH 8.0 [3] [s⁻¹]	kcat/Km (M^-1 s^-1); 50 mM Tris, 150 mM NaCl, 2.5 mM CaCl2, pH 8.0 [3] [M⁻¹ s⁻¹]	optical change / cleavage (absorbance at 397 nm, SDS-PAGE, MALDI-MS) [4]	cleavage; 50 mM HEPES buffer with 10% sucrose [5]
thrombin	2.81	Km has great decrease with 10 folds	kcat, has significant increase with 5 folds	substrate specificity (kcat/Km) of these four thrombin sensor variants is resulted in 50-fold increase	0.29	105000	2.86	Km has great decrease with 10 folds	kcat, has significant increase with 5 folds	substrate specificity (kcat/Km) of these four thrombin sensor variants is resulted in 50-fold increase	0.23	80200	20.9	0.057	2770	this sensor was not cleaved by thrombin and protease type X	
active caspase-3																	the cleavage effect was very weak and the cleavage reaction slow
